Measurements published in US20200377590A1 (Hoffmann-La Roche, published 2020).

Molecular target: T1, CD81 (UniProt P60033 1-236, limits assumed)
T1 construct: whole, on cells; also called CD81 receptor
T1 sequence (looked up): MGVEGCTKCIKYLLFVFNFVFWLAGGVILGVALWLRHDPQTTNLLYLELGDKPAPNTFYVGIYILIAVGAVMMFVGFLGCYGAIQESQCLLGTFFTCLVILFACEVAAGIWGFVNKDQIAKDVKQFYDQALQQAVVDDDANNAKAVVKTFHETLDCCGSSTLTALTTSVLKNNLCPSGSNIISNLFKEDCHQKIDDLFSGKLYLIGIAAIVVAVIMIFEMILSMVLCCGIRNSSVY
Assay: cell ELISA;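 further: antibody binding to HuH7 cells expressing CD81 versus a CD81-negative HuH7 control line, bound antibody detected by secondary reagent, absorbance at 450 nm with 620 nm reference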

B1: CD81K04 HC GG-02-hVH_1_69 / LC GG-06-hVK_1_39 (antibody, V domains shown)
VH: QVQLVQSGAEVKKPGSSVKVSCKASGYTFSSSWMNWVRQAPGQGLEWMGRIYSGDGDAIYNQKFQGRVTITADESTSTAYMELSSLRSEDTAVYYCAREGKTGDLLLRSWGQGTLVTVSS
VL: DIQMTQSPSSLSASVGDRVTITCRASKSVSTSIYSYLNWYQQKPGKAPKLLIYYASYLQSGVPSRFSGSGSGTDFTLTISSLQPEDFATYYCQHSREFPYTFGQGTKLEIK
notes: human constant region
  ELISA data: 0.08

B2: CD81K04 HC GG-03-hVH_1_69 / LC GG-06-hVK_1_39 (antibody, V domains shown)
VH: QVQLVQSGAEVKKPGSSVKVSCKASGYTFSSSWMNWVRQAPGQGLEWMGRIYSGDGDAIYAQKFQGRVTITADESTSTAYMELSSLRSEDTAVYYCAREGKTGDLLLRSWGQGTLVTVSS
VL: DIQMTQSPSSLSASVGDRVTITCRASKSVSTSIYSYLNWYQQKPGKAPKLLIYYASYLQSGVPSRFSGSGSGTDFTLTISSLQPEDFATYYCQHSREFPYTFGQGTKLEIK
notes: human constant region
  ELISA data: 0.064

B3: CD81K04 HC GG-04-hVH_1_69 / LC GG-06-hVK_1_39 (antibody, V domains shown)
VH: QVQLVQSGAEVKKPGSSVKVSCKASGYTFSSSWMNWVRQAPGQGLEWMGRIYSGDGDAIYNQKFQGRATITADESTSTAYMELSSLRSEDTAVYYCAREGKTGDLLLRSWGQGTLVTVSS
VL: DIQMTQSPSSLSASVGDRVTITCRASKSVSTSIYSYLNWYQQKPGKAPKLLIYYASYLQSGVPSRFSGSGSGTDFTLTISSLQPEDFATYYCQHSREFPYTFGQGTKLEIK
notes: human constant region
  ELISA data: 0.067

B4: CD81K04 HC GG-05-hVH_1_18 / LC GG-06-hVK_1_39 (antibody, V domains shown)
VH: QVQLVQSGAEVKKPGASVKVSCKASGYTFSSSWMNWVRQAPGQGLEWMGRIYSGDGDAIYAQKLQGRVTMTTDTSTSTAYMELRSLRSDDTAVYYCAREGKTGDLLLRSWGQGTLVTVSS
VL: DIQMTQSPSSLSASVGDRVTITCRASKSVSTSIYSYLNWYQQKPGKAPKLLIYYASYLQSGVPSRFSGSGSGTDFTLTISSLQPEDFATYYCQHSREFPYTFGQGTKLEIK
notes: human constant region
  ELISA data: 0.149

B5: CD81K04 HC JA_GG-13-hVH_1_69 / LC GG-06-hVK_1_39 (antibody, V domains shown)
VH: QVQLVQSGAEVKKPGSSVKVSCKASGGTFSSSWMNWVRQAPGQGLEWMGRIYSGDGDAIYAQKFQGRVTITADESTSTAYMELSSLRSEDTAVYYCAREGKTGDLLLRSWGQGTLVTVSS
VL: DIQMTQSPSSLSASVGDRVTITCRASKSVSTSIYSYLNWYQQKPGKAPKLLIYYASYLQSGVPSRFSGSGSGTDFTLTISSLQPEDFATYYCQHSREFPYTFGQGTKLEIK
notes: human constant region
  ELISA data: 0.119

B6: CD81K04 HC JA_GG-14-hVH_1_3 / LC GG-06-hVK_1_39 (antibody, V domains shown)
VH: QVQLVQSGAEVKKPGASVKVSCKASGYTFSSSWMNWVRQAPGQGLEWMGRIYSGDGDAIYNGKFKGRATITADTSASTAYMELSSLRSEDTAVYYCAREGKTGDLLLRSWGQGTLVTVSS
VL: DIQMTQSPSSLSASVGDRVTITCRASKSVSTSIYSYLNWYQQKPGKAPKLLIYYASYLQSGVPSRFSGSGSGTDFTLTISSLQPEDFATYYCQHSREFPYTFGQGTKLEIK
notes: human constant region
  ELISA data: 0.091

B7: CD81K04 HC JA_GG-14-hVH_1_69 / LC GG-06-hVK_1_39 (antibody, V domains shown)
VH: QVQLVQSGAEVKKPGSSVKVSCKASGYTFSSSWMNWVRQAPGQGLEWMGRIYSGDGDAIYNGKFKGKATITADESTSTAYMELSSLRSEDTAVYYCAREGKTGDLLLRSWGQGTLVTVSS
VL: DIQMTQSPSSLSASVGDRVTITCRASKSVSTSIYSYLNWYQQKPGKAPKLLIYYASYLQSGVPSRFSGSGSGTDFTLTISSLQPEDFATYYCQHSREFPYTFGQGTKLEIK
notes: human constant region
  ELISA data: 0.091

B8: CD81K04 HC JA_GG-14-hVH_1_69-GA / LC GG-06-hVK_1_39 (antibody, V domains shown)
VH: QVQLVQSGAEVKKPGSSVKVSCKASGYTFSSSWMNWVRQAPGQGLEWMGRIYSGDGDAIYNGKFKGKATITADESTSTAYMELSSLRSEDTAVYYCAREGKTGDLLLRSWGQGTLVTVSS
VL: DIQMTQSPSSLSASVGDRVTITCRASKSVSTSIYSYLNWYQQKPGKAPKLLIYYASYLQSGVPSRFSGSGSGTDFTLTISSLQPEDFATYYCQHSREFPYTFGQGTKLEIK
notes: human constant region
  ELISA data: 0.066

B9: CD81K04 HC JA_GG-15-hVH_1_3 / LC GG-06-hVK_1_39 (antibody, V domains shown)
VH: QVQLVQSGAEVKKPGASVKVSCKASGYTFSSSWMNWVRQAPGQRLEWMGRIYSGDGDAIYNGKFKGRVTITADTSASTAYMELSSLRSEDTAVYYCAREGKTGDLLLRSWGQGTLVTVSS
VL: DIQMTQSPSSLSASVGDRVTITCRASKSVSTSIYSYLNWYQQKPGKAPKLLIYYASYLQSGVPSRFSGSGSGTDFTLTISSLQPEDFATYYCQHSREFPYTFGQGTKLEIK
notes: human constant region
  ELISA data: 0.079

B10: CD81K04 HC JA_GG-16-hVH_1_3 / LC GG-06-hVK_1_39 (antibody, V domains shown)
VH: QVQLVQSGAEVKKPGASVKVSCKASGYTFSSSWMNWVRQAPGQGLEWMGRIYSGDGDAIYNGKFKGRVTITADTSASTAYMELSSLRSEDTAVYYCAREGKTGDLLLRSWGQGTLVTVSS
VL: DIQMTQSPSSLSASVGDRVTITCRASKSVSTSIYSYLNWYQQKPGKAPKLLIYYASYLQSGVPSRFSGSGSGTDFTLTISSLQPEDFATYYCQHSREFPYTFGQGTKLEIK
notes: human constant region
  ELISA data: 0.08

B11: CD81K04 HC K04_JA-13-hVH_1_3 / LC GG-06-hVK_1_39 (antibody, V domains shown)
VH: QVQLVQSGAEVKKPGASVKVSCKASGYTFSSSWMNWVRQAPGQRLEWMGRIYSGDGDAIYNGKFKGRVTITRDTSASTAYMELSSLRSEDTAVYYCAREGKTGDLLLRSWGQGTLVTVSS
VL: DIQMTQSPSSLSASVGDRVTITCRASKSVSTSIYSYLNWYQQKPGKAPKLLIYYASYLQSGVPSRFSGSGSGTDFTLTISSLQPEDFATYYCQHSREFPYTFGQGTKLEIK
notes: human constant region
  ELISA data: 0.064

B12: CD81K04 HC K04_JA_GG-17-hVH_1_3 / LC GG-06-hVK_1_39 (antibody, V domains shown)
VH: QVQLVQSGAEVKKPGASVKVSCKASGYTFSSSWMNWVRQAPGQRLEWMGRIYSGDGDTIYSQKFQGRVTITADTSASTAYMELSSLRSEDTAVYYCAREGKTGDLLLRSWGQGTLVTVSS
VL: DIQMTQSPSSLSASVGDRVTITCRASKSVSTSIYSYLNWYQQKPGKAPKLLIYYASYLQSGVPSRFSGSGSGTDFTLTISSLQPEDFATYYCQHSREFPYTFGQGTKLEIK
notes: human constant region
  ELISA data: 0.123

B13: CD81K04 HC GG-02-hVH_1_69 / LC CD81K04 (antibody, V domains shown)
VH: QVQLVQSGAEVKKPGSSVKVSCKASGYTFSSSWMNWVRQAPGQGLEWMGRIYSGDGDAIYNQKFQGRVTITADESTSTAYMELSSLRSEDTAVYYCAREGKTGDLLLRSWGQGTLVTVSS
VL: DIVLTQSPASLSVSLGQRATISCRASKSVSTSIYSYMHWYQQKPGQPPKLLIKYASYLESGVPARFSGSGSGTDFTLNIHPVEEEDAATYYCEHSREFPFTFGTGTKLEIK
notes: human constant region
  ELISA data: 0.918

B14: CD81K04 HC GG-03-hVH_1_69 / LC CD81K04 (antibody, V domains shown)
VH: QVQLVQSGAEVKKPGSSVKVSCKASGYTFSSSWMNWVRQAPGQGLEWMGRIYSGDGDAIYAQKFQGRVTITADESTSTAYMELSSLRSEDTAVYYCAREGKTGDLLLRSWGQGTLVTVSS
VL: DIVLTQSPASLSVSLGQRATISCRASKSVSTSIYSYMHWYQQKPGQPPKLLIKYASYLESGVPARFSGSGSGTDFTLNIHPVEEEDAATYYCEHSREFPFTFGTGTKLEIK
notes: human constant region
  ELISA data: 0.843

B15: CD81K04 HC GG-04-hVH_1_69 / LC CD81K04 (antibody, V domains shown)
VH: QVQLVQSGAEVKKPGSSVKVSCKASGYTFSSSWMNWVRQAPGQGLEWMGRIYSGDGDAIYNQKFQGRATITADESTSTAYMELSSLRSEDTAVYYCAREGKTGDLLLRSWGQGTLVTVSS
VL: DIVLTQSPASLSVSLGQRATISCRASKSVSTSIYSYMHWYQQKPGQPPKLLIKYASYLESGVPARFSGSGSGTDFTLNIHPVEEEDAATYYCEHSREFPFTFGTGTKLEIK
notes: human constant region
  ELISA data: 0.859

B16: CD81K04 HC GG-06-hVH_1_69 / LC CD81K04 (antibody, V domains shown)
VH: QVQLVQSGAEVKKPGSSVKVSCKASGYTFSSSWMCWVRQAPGQGLEWMGCIYSGDGDAIYNQKFQGRVTITADESTSTAYMELSSLRSEDTAVYYCAREGKTGDLLLRSWGQGTLVTVSS
VL: DIVLTQSPASLSVSLGQRATISCRASKSVSTSIYSYMHWYQQKPGQPPKLLIKYASYLESGVPARFSGSGSGTDFTLNIHPVEEEDAATYYCEHSREFPFTFGTGTKLEIK
notes: human constant region
  ELISA data: 0.342

B17: CD81K04 HC JA_GG-13-hVH_1_69 / LC CD81K04 (antibody, V domains shown)
VH: QVQLVQSGAEVKKPGSSVKVSCKASGGTFSSSWMNWVRQAPGQGLEWMGRIYSGDGDAIYAQKFQGRVTITADESTSTAYMELSSLRSEDTAVYYCAREGKTGDLLLRSWGQGTLVTVSS
VL: DIVLTQSPASLSVSLGQRATISCRASKSVSTSIYSYMHWYQQKPGQPPKLLIKYASYLESGVPARFSGSGSGTDFTLNIHPVEEEDAATYYCEHSREFPFTFGTGTKLEIK
notes: human constant region
  ELISA data: 0.564

B18: CD81K04 HC JA_GG-14-hVH_1_3 / LC CD81K04 (antibody, V domains shown)
VH: QVQLVQSGAEVKKPGASVKVSCKASGYTFSSSWMNWVRQAPGQGLEWMGRIYSGDGDAIYNGKFKGRATITADTSASTAYMELSSLRSEDTAVYYCAREGKTGDLLLRSWGQGTLVTVSS
VL: DIVLTQSPASLSVSLGQRATISCRASKSVSTSIYSYMHWYQQKPGQPPKLLIKYASYLESGVPARFSGSGSGTDFTLNIHPVEEEDAATYYCEHSREFPFTFGTGTKLEIK
notes: human constant region
  ELISA data: 0.998

B19: CD81K04 HC JA_GG-14-hVH_1_69 / LC CD81K04 (antibody, V domains shown)
VH: QVQLVQSGAEVKKPGSSVKVSCKASGYTFSSSWMNWVRQAPGQGLEWMGRIYSGDGDAIYNGKFKGKATITADESTSTAYMELSSLRSEDTAVYYCAREGKTGDLLLRSWGQGTLVTVSS
VL: DIVLTQSPASLSVSLGQRATISCRASKSVSTSIYSYMHWYQQKPGQPPKLLIKYASYLESGVPARFSGSGSGTDFTLNIHPVEEEDAATYYCEHSREFPFTFGTGTKLEIK
notes: human constant region
  ELISA data: 0.996

B20: CD81K04 HC JA_GG-14-hVH_1_69-GA / LC CD81K04 (antibody, V domains shown)
VH: QVQLVQSGAEVKKPGSSVKVSCKASGYTFSSSWMNWVRQAPGQGLEWMGRIYSGDGDAIYNGKFKGKATITADESTSTAYMELSSLRSEDTAVYYCAREGKTGDLLLRSWGQGTLVTVSS
VL: DIVLTQSPASLSVSLGQRATISCRASKSVSTSIYSYMHWYQQKPGQPPKLLIKYASYLESGVPARFSGSGSGTDFTLNIHPVEEEDAATYYCEHSREFPFTFGTGTKLEIK
notes: human constant region
  ELISA data: 0.877

B21: CD81K04 HC JA_GG-15-hVH_1_3 / LC CD81K04 (antibody, V domains shown)
VH: QVQLVQSGAEVKKPGASVKVSCKASGYTFSSSWMNWVRQAPGQRLEWMGRIYSGDGDAIYNGKFKGRVTITADTSASTAYMELSSLRSEDTAVYYCAREGKTGDLLLRSWGQGTLVTVSS
VL: DIVLTQSPASLSVSLGQRATISCRASKSVSTSIYSYMHWYQQKPGQPPKLLIKYASYLESGVPARFSGSGSGTDFTLNIHPVEEEDAATYYCEHSREFPFTFGTGTKLEIK
notes: human constant region
  ELISA data: 1
